The numbers were not newly measured in publication PMC9406010, which cites them from elsewhere.

Some targets named below: GPR1 (Homo sapiens) (UniProt P46091); CMKLR1 (Homo sapiens) (UniProt Q99788); CCRL2 (Homo sapiens) (UniProt O00421).

Chemerin, sequence (Q99969 21-157): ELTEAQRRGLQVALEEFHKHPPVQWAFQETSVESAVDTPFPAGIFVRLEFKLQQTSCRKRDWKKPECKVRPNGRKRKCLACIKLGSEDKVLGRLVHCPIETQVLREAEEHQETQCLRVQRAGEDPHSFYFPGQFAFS
CMKLR1 (Homo sapiens), sequence (Q99788 whole entry): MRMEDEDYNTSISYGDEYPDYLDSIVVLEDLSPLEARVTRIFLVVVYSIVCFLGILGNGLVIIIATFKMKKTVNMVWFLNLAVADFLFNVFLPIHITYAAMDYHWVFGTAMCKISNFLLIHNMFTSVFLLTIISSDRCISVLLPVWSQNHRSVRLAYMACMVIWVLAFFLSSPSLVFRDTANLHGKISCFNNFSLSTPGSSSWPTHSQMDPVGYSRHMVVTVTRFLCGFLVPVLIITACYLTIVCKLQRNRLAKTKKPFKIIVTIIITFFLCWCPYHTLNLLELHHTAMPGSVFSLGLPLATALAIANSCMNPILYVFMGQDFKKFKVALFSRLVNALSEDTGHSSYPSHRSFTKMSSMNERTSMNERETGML
GPR1 (Homo sapiens), sequence (P46091 whole entry): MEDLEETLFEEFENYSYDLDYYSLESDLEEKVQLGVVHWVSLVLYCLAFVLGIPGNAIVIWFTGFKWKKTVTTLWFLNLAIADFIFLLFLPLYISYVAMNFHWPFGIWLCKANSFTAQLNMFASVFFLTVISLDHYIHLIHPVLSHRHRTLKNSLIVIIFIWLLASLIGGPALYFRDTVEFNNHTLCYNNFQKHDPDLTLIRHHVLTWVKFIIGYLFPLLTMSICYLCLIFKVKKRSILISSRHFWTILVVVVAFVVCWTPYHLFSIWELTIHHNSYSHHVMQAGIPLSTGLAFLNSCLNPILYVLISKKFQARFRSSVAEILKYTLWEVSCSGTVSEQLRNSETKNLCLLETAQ
CCRL2 (Homo sapiens), sequence (O00421 whole entry): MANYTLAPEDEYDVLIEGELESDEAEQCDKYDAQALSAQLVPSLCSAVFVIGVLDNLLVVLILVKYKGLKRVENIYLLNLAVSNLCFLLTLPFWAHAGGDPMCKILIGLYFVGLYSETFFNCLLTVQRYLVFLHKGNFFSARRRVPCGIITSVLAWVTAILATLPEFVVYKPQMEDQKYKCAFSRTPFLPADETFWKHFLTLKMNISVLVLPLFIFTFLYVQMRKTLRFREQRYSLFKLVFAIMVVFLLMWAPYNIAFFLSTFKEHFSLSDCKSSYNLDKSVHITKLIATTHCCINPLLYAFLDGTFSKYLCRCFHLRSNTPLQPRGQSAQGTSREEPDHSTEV

For Chemerin (from UniProt Q99969), the Kd (in general, the concentration at which binding is half-saturated) with GPR1 (Homo sapiens) is 0.21 nM; with CMKLR1 (Homo sapiens), 0.88 nM; in the series with CCRL2 (Homo sapiens), 2.35 nM.
